For one substance, decrease of binding against wild type RCBTB1 results are on record in publication PMC2680606.

In this assay the target is Myc-UbcM2-His6 (mouse) (UniProt P52483). The experiment in a line: pull-down.
Chain of Myc-UbcM2-His6 (mouse) (P52483 whole entry): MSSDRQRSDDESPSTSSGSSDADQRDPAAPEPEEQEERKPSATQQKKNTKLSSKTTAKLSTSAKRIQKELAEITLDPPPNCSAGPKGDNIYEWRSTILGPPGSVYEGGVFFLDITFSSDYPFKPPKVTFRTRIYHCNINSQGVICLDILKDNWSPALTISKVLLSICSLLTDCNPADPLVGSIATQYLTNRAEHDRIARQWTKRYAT

Chain of ^35S-RCBTB1 without the BTB domain and the C-terminal 87 residues (Q8NDN9 1-359): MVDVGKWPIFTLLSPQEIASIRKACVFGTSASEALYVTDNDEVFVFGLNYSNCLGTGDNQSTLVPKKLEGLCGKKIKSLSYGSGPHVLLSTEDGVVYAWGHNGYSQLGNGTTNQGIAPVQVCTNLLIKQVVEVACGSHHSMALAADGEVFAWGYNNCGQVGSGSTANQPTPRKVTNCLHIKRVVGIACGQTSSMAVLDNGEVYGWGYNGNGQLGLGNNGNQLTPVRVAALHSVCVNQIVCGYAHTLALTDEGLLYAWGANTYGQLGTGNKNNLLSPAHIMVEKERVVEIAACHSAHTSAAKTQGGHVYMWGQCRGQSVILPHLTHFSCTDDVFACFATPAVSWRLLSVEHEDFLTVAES

Regarding “^35S-RCBTB1 without the BTB domain and the C-terminal 87 residues (from UniProt Q8NDN9 1-359) (domain or fragment)”, the decrease of binding against wild type RCBTB1 was found to be 78%.
